Test results taken from patent US8026218 (UNIVERSITY OF ARIZONA, dated 2011).
Read-outs that look alike come from different tables or passages of the source. Square brackets hold non-standard residues; d marks the D form. Ends that are not written are not given here. * marks the point of attachment. NH(3,5-(CF3)2-benzyl) = FC(F)(F)c1cc(CN*)cc(C(F)(F)F)c1; OBzl(3,5-(CF3)2) = FC(F)(F)c1cc(CO*)cc(C(F)(F)F)c1; Dmt = Cc1cc(O)cc(C)c1C[C@H](N)C(=O)O; NHBn = c1ccc(CN*)cc1

Tests used:
human δ opioid receptor [1] = target: T1, human δ opioid receptor (human, UniProt P41143 1-372); assay: competition vs [3H]DPDPE, hDOR cell membranes
T1 construct: whole, on cells; membrane preparations of the transfected cells were used; also called hDOR; DOR
T1 sequence (P41143 whole entry, stated change not applied): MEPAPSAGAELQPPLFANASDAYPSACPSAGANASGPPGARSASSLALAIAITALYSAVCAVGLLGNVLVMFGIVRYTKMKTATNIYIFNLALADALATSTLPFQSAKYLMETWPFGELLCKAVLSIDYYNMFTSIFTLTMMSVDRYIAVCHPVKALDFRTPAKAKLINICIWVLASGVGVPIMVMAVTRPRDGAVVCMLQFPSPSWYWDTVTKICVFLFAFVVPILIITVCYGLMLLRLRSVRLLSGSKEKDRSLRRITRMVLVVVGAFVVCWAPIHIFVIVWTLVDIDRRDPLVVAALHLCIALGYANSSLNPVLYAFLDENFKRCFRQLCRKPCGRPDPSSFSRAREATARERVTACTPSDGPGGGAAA

rat µ opioid receptor [2] = target: T2, rat µ opioid receptor (rat, UniProt P33535 1-398); assay: competition vs [3H]DAMGO, rMOR cell membranes
T2 construct: whole, on cells; membrane preparations of the transfected cells were used; also called rMOR; MOR
T2 sequence (P33535 whole entry): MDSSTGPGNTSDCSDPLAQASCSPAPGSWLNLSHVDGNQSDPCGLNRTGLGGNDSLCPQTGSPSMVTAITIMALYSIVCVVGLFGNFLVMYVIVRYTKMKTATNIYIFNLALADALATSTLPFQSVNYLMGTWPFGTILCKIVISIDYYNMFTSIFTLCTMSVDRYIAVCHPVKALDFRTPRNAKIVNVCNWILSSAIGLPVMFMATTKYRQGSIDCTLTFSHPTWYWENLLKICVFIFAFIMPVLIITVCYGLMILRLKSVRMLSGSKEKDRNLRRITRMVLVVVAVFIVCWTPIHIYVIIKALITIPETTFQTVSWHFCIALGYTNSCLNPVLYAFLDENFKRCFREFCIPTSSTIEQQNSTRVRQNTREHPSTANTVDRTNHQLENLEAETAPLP

[3] = target: µ opioid receptor of the guinea pig isolated ileum (guinea pig, UniProt P97266 1-98); assay: cell-based or functional assay
µ opioid receptor of the guinea pig isolated ileum, sequence (P97266 whole entry): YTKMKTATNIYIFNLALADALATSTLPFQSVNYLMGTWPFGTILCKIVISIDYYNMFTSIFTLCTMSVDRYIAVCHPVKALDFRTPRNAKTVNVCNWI

guinea pig NK1 receptor = guinea pig NK1 receptor (guinea pig, UniProt P30547 1-407); assay: cell-based or functional assay
guinea pig NK1 receptor, sequence (P30547 whole entry): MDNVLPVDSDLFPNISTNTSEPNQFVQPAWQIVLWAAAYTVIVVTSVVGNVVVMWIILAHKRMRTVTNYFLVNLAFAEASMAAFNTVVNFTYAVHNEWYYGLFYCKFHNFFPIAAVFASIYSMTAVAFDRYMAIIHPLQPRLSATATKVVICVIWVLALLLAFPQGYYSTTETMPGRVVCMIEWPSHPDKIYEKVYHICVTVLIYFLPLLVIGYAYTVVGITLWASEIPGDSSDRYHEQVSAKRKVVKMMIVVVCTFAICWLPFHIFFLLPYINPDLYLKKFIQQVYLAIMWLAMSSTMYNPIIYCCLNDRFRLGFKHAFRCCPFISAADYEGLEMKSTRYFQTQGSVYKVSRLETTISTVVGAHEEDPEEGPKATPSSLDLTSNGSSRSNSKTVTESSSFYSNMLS

human NK1 receptor [4] = target: T3, human NK1 receptor (human, UniProt P25103 1-407); assay: competition vs [3H]Substance P, hNK1 CHO cell membranes
T3 construct: whole, on cells; membrane preparations of the transfected cells were used; also called hNK1; human neurokinin-1 receptor
T3 sequence (P25103 whole entry): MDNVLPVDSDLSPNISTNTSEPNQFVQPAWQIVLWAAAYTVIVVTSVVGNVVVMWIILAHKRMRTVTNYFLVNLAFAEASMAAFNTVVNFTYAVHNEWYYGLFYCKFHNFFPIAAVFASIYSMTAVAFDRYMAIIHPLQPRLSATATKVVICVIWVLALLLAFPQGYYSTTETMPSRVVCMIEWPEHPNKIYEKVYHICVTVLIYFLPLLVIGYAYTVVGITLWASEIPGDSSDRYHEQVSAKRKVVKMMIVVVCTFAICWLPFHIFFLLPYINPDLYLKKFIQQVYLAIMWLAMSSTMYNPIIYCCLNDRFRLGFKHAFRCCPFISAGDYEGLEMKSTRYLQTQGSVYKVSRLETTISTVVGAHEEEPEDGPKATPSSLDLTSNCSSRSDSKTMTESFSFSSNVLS

rat NK1 receptor [5] = target: T4, rat NK1 receptor (rat, UniProt P14600 1-407); assay: competition vs [3H]Substance P, rNK1 CHO cell membranes
T4 construct: whole, on cells; membrane preparations of the transfected cells were used; also called rNK1; rNK-1
T4 sequence (P14600 whole entry): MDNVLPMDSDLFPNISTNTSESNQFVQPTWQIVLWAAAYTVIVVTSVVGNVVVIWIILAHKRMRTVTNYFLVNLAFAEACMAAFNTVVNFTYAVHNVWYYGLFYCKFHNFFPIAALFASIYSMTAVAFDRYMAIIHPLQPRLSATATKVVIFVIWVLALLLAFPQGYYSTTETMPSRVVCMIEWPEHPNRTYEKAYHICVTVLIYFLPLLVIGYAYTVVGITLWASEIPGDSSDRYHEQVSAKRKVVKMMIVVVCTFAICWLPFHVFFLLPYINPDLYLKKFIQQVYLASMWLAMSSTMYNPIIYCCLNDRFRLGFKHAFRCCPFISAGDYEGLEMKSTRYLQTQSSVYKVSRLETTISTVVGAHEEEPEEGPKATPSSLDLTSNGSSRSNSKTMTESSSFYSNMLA

rat NK1 receptor [6] = target: T4, rat NK1 receptor; assay: as above; remark: listed apart in the source
human NK1 receptor [7] = target: T3, human NK1 receptor; assay: competition vs [3H]Substance P, hNK1 CHO cell membranes; remark: listed apart in the source
human δ opioid receptor [8] = target: T1, human δ opioid receptor; assay: competition vs [3H]DPDPE, hDOR cell membranes; remark: listed apart in the source
rat NK1 receptor [9] = target: T4, rat NK1 receptor; assay: competition vs [3H]Substance P, rNK1 CHO cell membranes; remark: listed apart in the source
rat µ opioid receptor [10] = target: T2, rat µ opioid receptor; assay: competition vs [3H]DAMGO, rMOR cell membranes; remark: listed apart in the source
human NK1 receptor [11] = target: T3, human NK1 receptor; assay: competition vs [3H]Substance P, hNK1 CHO cell membranes; remark: listed apart in the source
human δ opioid receptor [12] = target: T1, human δ opioid receptor; assay: cell-based or functional assay
rat µ opioid receptor [13] = target: T2, rat µ opioid receptor; assay: cell-based or functional assay
rat NK1 receptor [14] = target: T4, rat NK1 receptor; assay: competition vs [3H]Substance P, rNK1 CHO cell membranes; remark: listed apart in the source
human δ opioid receptor [15] = target: T1, human δ opioid receptor; assay: competition vs [3H]DPDPE, hDOR cell membranes; remark: listed apart in the source
human NK1 receptor [16] = target: T3, human NK1 receptor; assay: competition vs [3H]Substance P, hNK1 CHO cell membranes; remark: listed apart in the source

## [Dmt][dA]GFMPLW-NHBn (also called TY034) [DmtDAlaGlyPheMetProLeuTrpNHBn]
Human δ opioid receptor [1]
  Ki: 0.1 nM
Rat µ opioid receptor [2]
  Ki: 0.14 nM
[3]
  GPI/LMMP IC50: 11.4 nM
Guinea pig NK1 receptor
  GPI/LMMP Substance P antagonist Ke: 36.9 nM
Human NK1 receptor [4]
  Ki: 2.4 nM
Rat NK1 receptor [5]
  Ki: 317 nM

## YXGFXPLW (D-Pen at 2 and 5 (written X); disulfide 2-5; C-terminal NH-3,5-Bzl(CF3)2 amide, cyclic; also called TY049) [Tyr[DPenGlyPheDPen]ProLeuTrpNHBn(CF3)2]
Rat NK1 receptor [6]
  Ki: 4.54 nM
Human NK1 receptor [7]
  Ki: 0.18 nM

## Y[dA]GW-{OBzl(3,5-(CF3)2)} (also called NP44) [Tyr-D-Ala-Gly-Trp-O-3′,5′(CF3)2-Bzl]
Human δ opioid receptor [8]
  Ki: 306 nM
Rat NK1 receptor [9]
  Ki: 3.4 nM
Rat µ opioid receptor [10]
  Ki: 48.5 nM
Human NK1 receptor [11]
  Ki: 0.03 nM
Human δ opioid receptor [12]
  GTP EC50: 280 nM
Rat µ opioid receptor [13]
  GTP EC50: 22.9 nM

## [Dmt][dA]GFMPLW-{NH(3,5-(CF3)2-benzyl)} (also called TY032) [DmtDAlaGlyPheMetProLeuTrpNHBn(CF3)2]
Rat NK1 receptor [14]
  Ki: 2.3 nM
Human δ opioid receptor [15]
  Ki: 0.12 nM
Human δ opioid receptor [1]
  Ki: 0.12 nM
[3]
  GPI/LMMP IC50: 18.6 nM
Guinea pig NK1 receptor
  GPI/LMMP Substance P antagonist Ke: 7.5 nM
Human NK1 receptor [16]
  Ki: 7.9 pM
Human NK1 receptor [4]
  Ki: 0.0079 nM
Rat NK1 receptor [5]
  Ki: 2.3 nM
